Source: article PMC6314816 (Journal of the American Chemical Society, 2018)

Assays:
Test in all cases: spectrophotometric NADPH oxidation, initial rates
Format in all cases: biochemical, Thermocrispum municipale
Details in all cases: NADPH co-substrate
CC(=O)CCc1ccccc1 = test system: CC(=O)CCc1ccccc1
CC(=O)Cc1ccccc1 = test system: CC(=O)Cc1ccccc1
[1] = substrate: CC(=O)CCc1ccccc1; remark: listed apart in the source
[2] = substrate: CC(=O)Cc1ccccc1; remark: listed apart in the source

TmCHMO (Thermocrispum municipale; F434G/L145G/L437T/T435F)
Km (CC(=O)CCc1ccccc1): 24 ± 4.1 µM
kcat (CC(=O)CCc1ccccc1): 0.16 ± 0.0028 s⁻¹

TmCHMO (Thermocrispum municipale; L437A/W492Y)
Km (CC(=O)Cc1ccccc1): 1500 ± 460 µM
kcat (CC(=O)Cc1ccccc1): 0.16 ± 0.014 s⁻¹

B1: TmCHMO (Thermocrispum municipale) (protein)
chain: MSTTQTPDLDAIVIGAGFGGIYMLHKLRNDLGLSVRVFEKGGGVGGTWYWNKYPGAKSDTEGFVYRYSFDKELLREYDWTTRYLDQPDVLAYLEHVVERYDLARDIQLNTEVTDAIFDEETELWRVTTAGGETLTARFLVTALGLLSRSNIPDIPGRDSFAGRLVHTNAWPEDLDITGKRVGVIGTGSTGTQFIVAAAKMAEQLTVFQRTPQYCVPSGNGPMDPDEVARIKQNFDSIWDQVRSSTVAFGFEESTVEAMSVSESERQRVFQQAWDKGNGFRFMFGTFCDIATNPEANAAAAAFIRSKIAEIVKDPETARKLTPTDLYAKRPLCNEGYYETYNRDNVSLVSLKETPIEEIVPQGVRTSDGVVHELDVLVFATGFDAVDGNYRAMNLRGRDGRHINEHWTEGPTSYLGVTKAGFPNMFMILGPNGPFTNLPPSIEAQVEWISDLIDKATREGLTTVEPTADAEREWTETCAEIANMTLFPKADSWIFGANIPGKRHAVMFYLGGLGNYRRQLADVADGGYRGFQLRGERAQAVA
Km [1]: 12000 ± 7000 µM
kcat [1]: 0.31 ± 0.11 s⁻¹
Km [2]: 860 ± 60 µM
kcat [2]: 0.73 ± 0.014 s⁻¹
